Reference: patent US9814672B2, “Echogenic vehicle for clinical delivery of plasminogen activator and other fibrin-binding therapeutics to thrombi” (priority 2007, dated 2017)
Where two headings read alike, the source gives them in different places. Each block holds one substance with its values, some of them ahead of it.

Molecular target: T1, fibrin (Homo sapiens, UniProt P02671+P02675+P02679)
T1 construct: purchased Calbiochem (EMD Biosciences, Inc., La Jolla, Calif.)
T1 sequence (P02671 36-629 limits assumed): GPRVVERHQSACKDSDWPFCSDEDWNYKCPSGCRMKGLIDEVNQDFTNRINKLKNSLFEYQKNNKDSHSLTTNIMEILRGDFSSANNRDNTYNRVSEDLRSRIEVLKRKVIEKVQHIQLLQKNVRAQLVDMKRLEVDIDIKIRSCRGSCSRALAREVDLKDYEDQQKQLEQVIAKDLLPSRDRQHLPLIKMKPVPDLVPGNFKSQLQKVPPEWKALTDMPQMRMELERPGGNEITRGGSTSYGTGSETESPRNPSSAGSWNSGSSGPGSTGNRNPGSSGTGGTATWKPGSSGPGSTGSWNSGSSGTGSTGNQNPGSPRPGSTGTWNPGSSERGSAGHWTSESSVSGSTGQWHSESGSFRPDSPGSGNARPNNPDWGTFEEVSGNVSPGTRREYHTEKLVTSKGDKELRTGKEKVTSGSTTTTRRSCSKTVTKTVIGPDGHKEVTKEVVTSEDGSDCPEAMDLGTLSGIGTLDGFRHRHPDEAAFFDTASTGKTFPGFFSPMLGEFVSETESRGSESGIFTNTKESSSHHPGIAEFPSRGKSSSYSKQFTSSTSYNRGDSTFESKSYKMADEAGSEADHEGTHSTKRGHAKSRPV
T1 sequence (P02675 45-491 limits assumed): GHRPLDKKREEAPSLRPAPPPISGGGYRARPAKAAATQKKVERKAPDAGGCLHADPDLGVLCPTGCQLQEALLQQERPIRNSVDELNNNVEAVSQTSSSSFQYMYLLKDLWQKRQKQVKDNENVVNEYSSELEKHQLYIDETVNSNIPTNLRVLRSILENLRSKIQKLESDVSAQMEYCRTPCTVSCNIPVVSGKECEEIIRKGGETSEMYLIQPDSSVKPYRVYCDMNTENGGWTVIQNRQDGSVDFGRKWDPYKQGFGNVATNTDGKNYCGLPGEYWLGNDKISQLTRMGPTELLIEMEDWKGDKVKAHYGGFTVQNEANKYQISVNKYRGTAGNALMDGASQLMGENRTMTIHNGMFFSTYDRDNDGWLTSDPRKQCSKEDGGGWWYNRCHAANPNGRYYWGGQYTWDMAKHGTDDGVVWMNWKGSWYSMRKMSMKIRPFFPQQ
T1 sequence (P02679 27-437 isoform P02679-2 limits assumed): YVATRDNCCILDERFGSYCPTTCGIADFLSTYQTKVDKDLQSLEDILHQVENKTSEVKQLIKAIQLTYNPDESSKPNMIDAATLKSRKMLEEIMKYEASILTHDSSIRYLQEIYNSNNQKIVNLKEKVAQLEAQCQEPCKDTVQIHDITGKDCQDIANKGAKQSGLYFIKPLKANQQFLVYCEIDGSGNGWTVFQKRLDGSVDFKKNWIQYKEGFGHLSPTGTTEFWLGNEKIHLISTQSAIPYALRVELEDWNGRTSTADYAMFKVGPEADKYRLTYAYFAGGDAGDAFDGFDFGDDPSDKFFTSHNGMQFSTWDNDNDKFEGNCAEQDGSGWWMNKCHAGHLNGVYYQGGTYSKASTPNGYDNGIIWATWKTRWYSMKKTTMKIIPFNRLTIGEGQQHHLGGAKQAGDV
Test: Two-stage fibrin pad ELISA, Scatchard and van't Hoff analysis
Assay type: binding
Details: for ΔH°: van't Hoff plot
Method: Added 100 μl 0.2% BSA/PBS to each well and incubated at 37° C. for 1 hour. All subsequent incubations were also at 37° C. Aspirated the wells and washed the plate 3× with PBS-T. Added Activase dilutions (10, 5, 2.5, 1.25, and 0.625 μg/ml PBS-T) to replicate wells ([…]). Incubated for 2 hours. Removed the contents of each well and pooled all samples within each dilution. Stored pooled samples at 4° C. For tPA-ELIP dilutions (in PBS), the third wash before adding the samples was with PBS. Stored the pooled tPA-ELIP samples in polypropylene tubes.
Added monoclonal anti-tPA capture antibody (Ab) (5 μg/ml coating buffer; […]) to rows B, C, E and G of a fresh microplate. Incubated in a humidified chamber at 4° C. overnight. All subsequent incubations were in humidified chambers at 37° C. at volumes of 50 μl/well, followed by aspiration of wells and 3× washes with PBS-T. Blocked all rows with conjugate buffer for 1 hour. Added tPA standards (50, 25, 12.5, 6.25 and 3.13 ng/ml) and pooled sample dilutions (in PBS-T) in duplicate to sample (B, C, E, G) and background (A, D, F, H) wells. Incubated for 2 hours. Added secondary detection Ab (10 μg sheep anti-tPA/ml 0.1% BSA in PBS-T) to all wells and incubated 1 hour, followed by a conjugate incubation (3,000× diluted with conjugate buffer; 1 hour). Added 50 μl of substrate buffer+500 of substrate (1 tablet/5 ml substrate buffer) to each well. Incubated at 37° for 15 minutes. Immediately quenched with 5 μl of 1M sodium hydroxide/well. Read the plate at 405 nm. Determined net absorbance (A405) by subtracting background OD from sample OD (e.g., B4-A4 or E7-F7).
Calculated the undiluted tPA concentrations of each pooled sample from the standard curve. These represented the free fractions ([F]) of the sample dilutions after equilibrium incubation with fibrin. Obtained the bound concentrations ([B]) by subtracting the free values from the total tPA concentration of the starting dilutions. Prepared Scatchard plots by plotting [B] (x-axis) vs. B/F (y-axis). The slope=−Kassoc and the y-intercept=Kassoc[n], where [n] was the concentration of exposed tPA binding sites on the fibrin pads.
Dilutions of untreated, sham-treated (control) and PPACK-treated (tPA(P)) tPA, as well as tPA(P) conjugated to ELIP (tPA(P)-ELIP), were incubated on replicate fibrin pads, prepared in microplate wells according to a modification of the method of Edgell et al. (1996). Human thrombin was added to a solution of 0.5 mg/ml of human fibrinogen in 0.02M phosphate-buffered saline, pH 7.4 (PBS), to a final concentration of 0.125 IU thrombin/ml; 100 μl of this solution was immediately added to each well and incubated at 37° C. for 45 minutes, followed by overnight drying of the plate at 45° C. After incubation with 100 μl/well of 0.2% BSA in PBS for 1 hour, samples (100 μl/well) were incubated for 2 hours at 37° C. For thermodynamic analyses, this incubation was performed at three temperatures (5, 24 and 37° C.). In order to determine the concentration of free tPA remaining in solution after incubation of tPA with fibrin, from which the concentration of bound tPA could be calculated for Scatchard analysis, the contents of duplicate wells were recovered, pooled and subsequently assayed for immunoreactive tPA in a standard quantitative sandwich ELISA.
Briefly, Nunc MaxiSorp microtiter plates were coated with 5 μg/ml of a monoclonal anti-tPA capture antibody (Ab) in 0.05M sodium bicarbonate, pH 9.6, overnight at 4° C. All incubation volumes were 50 μl/well. One-half of wells were left uncoated for determination of nonspecific binding. After aspirating well contents, all wells were blocked with conjugate buffer (1% BSA in 0.05M Tris buffer, pH 8.0, with 0.02% sodium azide) for 1 hour. From this point, all incubations were at 37° C. Each incubation was followed by aspiration of well contents and washes (3×) with PBS-T (PBS with 0.05% Tween 20). […]

other fibrin-binding affinity in the presence of 50 mM EACA (50 mM EACA): non-measurable level | Kd (50 mM EACA, read-out: remaining fibrin-binding affinity in the presence of 50 mM EACA): 32.9 nM | Kd (37° C., SE, n=3, read-out: High-affinity interaction dissociation constant (KD)): 5.81 ± 4.04 nM | Kd (37° C., read-out: Low-affinity interaction KD): 30.4 ± 14.7 nM | Kassoc 1 (Example 12, 37° C.): 3.13e+08 M⁻¹ | Kassoc 2 (Example 12, 37° C.): 3.53e+07 M⁻¹ | Kd (Example 12, 37° C., PBS-T, read-out: higher affinity on Scatchard plot): 3.19 nM | Kd (Example 12, 37° C., PBS-T, read-out: lower affinity on Scatchard plot): 28.3 nM | High affinity (Scatchard plot) (representative plot, PBS-T, 37° C., r=0.883): 2e+09 M⁻¹ | low affinity (Scatchard plot) (representative plot, PBS-T, 37° C., r=0.904): 1.95e+08 M⁻¹
Substance: tPA: Recombinant tissue-plasminogen activator (Activase®, Genentech Inc.), used as the thrombolytic agent [reference compound]

ΔS° (High affinity): −33.8 cal/mole° | Kassoc (High affinity, 278 K): 4.67e+09 M⁻¹ | ΔG° (High affinity, 278 K): -12.3 kcal/mol | Kassoc (High affinity, 297 K): 5.04e+08 M⁻¹ | ΔG° (High affinity, 297 K): -11.8 kcal/mol | Kassoc (High affinity, 310 K): 7.65e+07 M⁻¹ | ΔG° (High affinity, 310 K): -11.2 kcal/mol | ΔH° (High affinity): -21.7 kcal/mol | ΔS° (Low affinity): −9.93 cal/mole° | Kassoc (Low affinity, 278 K): 5.33e+08 M⁻¹ | ΔG° (Low affinity, 278 K): -11.1 kcal/mol | Kassoc (Low affinity, 297 K): 1.2e+08 M⁻¹ | ΔG° (Low affinity, 297 K): -11.0 kcal/mol | Kassoc (Low affinity, 310 K): 3.91e+07 M⁻¹ | ΔG° (Low affinity, 310 K): -10.8 kcal/mol | ΔH° (Low affinity): -13.9 kcal/mol | Kd (S.E., n=3, read-out: High-Affinity KD @ 37° C.): 10.4 ± 1.4 nM | Kd (abstract of Example 15, read-out: fibrin-binding KD, higher affinity, after PPACK inactivation): ~2 nM | Kd (abstract of Example 15, read-out: fibrin-binding KD, lower affinity, after PPACK inactivation): 33 nM
Substance: tPA(P): Human recombinant tPA (Activase®) irreversibly inhibited with D-phe-L-pro-L-arg-chloromethyl ketone (PPACK)
